From publication PMC3558616 (Molecular microbiology, 2012)

Target: the molecule itself
Assay: SEC

B1: HvJAMM2 (Haloferax volcanii JAMM/MPN+ domain protein, HVO_1016), His6-tagged (natural protein, UniProt D4GVJ3 1-161, looked up)
chain: MRLFRSREVVGIAADALDFALEASAETHPNEYMGLLRGEEARRVGVDRDGYVVTDVLIIPGTVSDPYSATVRNDLVPNDFHAVGSIHSHPNGVLRPSDADLDTFGSGRVHIIIGSPYGPDDWEAFDQSGEVRDLDVLDADLSDPESFFDFTQDDIDAELDR
- stoichiometry N: 2
